Test results reported in a protein production outcome set (Wang et al. 2014).

assay: label from the status in PepcDB records
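Further: failed if final PepcDB status was selected cloned or expressed and not failed if soluble or beyond.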

Row | Sequence | protein production
1 | MAKEVVYRGSARQRMMQGIEILARAAIPTLGATGPSVMIQHRADGLPPISTRDGVTVANSIVLKDRVANLGARLLRDVAGTMSREAGDGTTTAIVLARHIAREMFKSLAVGADPIALKRGIDRAVARVSEDIGARAWRGDKESVILGVAAVATKGEPGVGRLLLEALDAVGVHGAVSIELGQRREDLLDVVDGYRWEKGYLSPYFVTDRARELAELEDVYLLMTDREVVDFIDLVPLLEAVTEAGGSLLIAADRVHEKALAGLLLNHVRGVFKAVAVTAPGFGDKRPNRLLDLAALTGGRAVLEAQGDRLDRVTLADLGRVRRAVVSADDTALLGIPGTEASRARLEGLRLEAEQYRALKPGQGSATGRLHELEEIEARIVGLSGKSAVYRVGGVTDVEMKERMVRIENAYRSVVSALEEGVLPGGGVGFLGSMPVLAELEARDADEARGIGIVRSALTEPLRIIGENSGLSGEAVVAKVMDHANPGWGYDQESGSFCDLHARGIWDAAKVLRLALEKAASVAGTFLTTEAVVLEIPDTDAFAGFSAEWAAATREDPRV | failed
2 | MAKFIMVVGTSSNSGKTVLVSGICRMLSNKGYKVAPFKSQNMSLNSRVSVEDGEIAVAQYTQAMAARAEPSVHFNPILLKPKGNFVSQVIVHGNPYEDKDYNEYRSKKDDFLVKIKESIDYLDKNYDYVVIEGAGSCCEINLLNDDIANLKVAEIAGADAILVSDIDRGGVFASIYGTVQLLPENWKKLLKGFVINKFRGNIDVLKDGFEKIEELTNIPVIGTIPYDETLVLPEEDSQALDGKRVFGNLKSPIEVNVVKFSKIANFTDVDPFSSDCLMKYIDFNENITGDILILPGTRCSTVEMDLMKKYGMDKKILEFVENGGIVLGICGGYQALGKMLFDEDFSEGDVGTISGLGLFDMETTFGNKKAIKNSTGKISIFNQNFDVSGYELHEGYSVSNETPLISLSKGFGNCGDSYDGSFKMIGDSYIFGTYFHGILENFEFRNYLVNLARSKKNLSKIEDDTYAELFNENMDKLSKIIEENLDFSKIIG | failed
3 | MAKGSAKKSFLDLFKITDSNDDDFDDDMFDDEDEMEDEYDDPYDEAYDSEEEYDDGSDAASDRAKASPLKSFNKYKNSRTPSGNVSKTKTAKSSQNSKLVSINSRSDRDSYDDSEVFVIKPDEFDDAQMIIDHLNRGQIIVINMEDLDLPTAQRIADFIGGASYAVNGLFQAISGNIFLATPNGTYVSGDLREELAGGSLGGEDLSKATY | failed
4 | MAKIFVVGGSGRVASELIKNLINDGNQVFASSRHPEKIIKLDNVVPVKLDLHSDVSAWSEVFKGMDVIYFVAGSRGKDLLQTDAMGAVKTMQAAENVGVKRYIMLSSLYALQPEKWSQYESLAALTDYNIAKFFADNYLVNDTKLDYTVVQPASLTEETGTGRVSFNEIISNTNPIPDVAKVLAEVIKHNNTIGKVIMMCSGDNPIETALKDI | failed
5 | MAKIKVMSIFGTRPEAIKMAPLVLALEKEPETFESTVVITAQHREMLDQVLEIFDIKPDIDLDIMKKGQTLAEITSRVMNGINEVIAAENPDIVLVHGDTTTSFAAGLATFYQQKMLGHVEAGLRTWNKYSPFPEEMNRQLTGVMADIHFSPTKQAKENLLAEGKDPATIFVTGNTAIDALKTTVQKDYHHPILENLGDNRLILMTAHRRENLGEPMQGMFEAVREIVESREDTELVYPMHLNPAVREKAMAILGGHERIHLIEPLDAIDFHNFLRKSYLVFTDSGGVQEEAPGMGVPVLVLRDTTERPEGIEAGTLKLIGTNKENLIKEALDLLDNKESHDKMAQAANPYGDGFAANRILAAIKSHFEETDRPEDFIV | not failed
6 | MAKKKNVSVISVEKPTWFPLTDETGAFPVYGAPITIGTAVSIKPDVTTETTPDYGDSVVQDQYVAFGGAEVTLETNGYQNEVLAEITGGKKLKGGVLRSADDIASDGAFAYRRRKSNGKYRYTIFYKGKFALTSDETSTLEGSSVSYTHPEWTGSFVDVPGLGYMYSVDEDDEGVDLEMIKNWFTEVMDPRKENTTAVTGVTLDQTELNLKVGQTATLTPTITPDNASNKKYQFRSESEAIGTVTPIQGKVTAVGEGTTEIVVTTEDGNFTAKCTLNVTTADLEHHHHHH | failed
7 | MAKKNKRSQQKNKCLKPEKDPSTVKRLLEDPPRKKRYLQPLENPPTESYGDDEKMETEEEGEKYLGKNLPASAFIIVAAERHDSDSYSETELEKKICGSVVVAKMNDDKMVSTDTKKKYFQRILSDDDKIVLLQGMVDFQNDKGTISYDDMTGFIDTVKNIISFQANSRQFTTKIRRLKDKFVQKRNKGVDENSLANVEIYEI | failed
8 | MAKKTSSKWYSTSAFSRLEKLGLRHPKPSPFIGNLTFFRQGFWESQMELRKLYGPLCGYYLGRRMFIVISEPDMIKQVLVENFSNFTNRMASGLEFKSVADSVLFLRDKRWEEVRGALMSAFSPEKLNEMVPLISQACDLLLAHLKRYAESGDAFDIQRCYCNYTTDVVASVAFGTPVDSWQAPEDPFVKHCKRFFENVELLGTPWLQVYNNFPALLDARILPNKNRDELNGFFNKLIRNVIALRDQQAAEERRRDFLQMVLDARHSASPMGVQDFDIVRDVFSSTGCKPNPSRQHQPSPMARPLTVDEIVGQAFIFLIAGYEIITNTLSFATYLLATNPDCQEKLLREVDVFKEKHMAPEFCSLEEGLPYLDMVIAETLRMYPPAFRFTREAAQDCEVLGQRIPAGAVLEMAVGALHHDPEHWPSPETFNPERFTAEARQQHRPFTYLPFGAGPRSCLGVRLGLLEVKLTLLHVLHKFRFQACPETQVPLQLESKSALGPKNGVYIKIVSRHHHH | failed
9 | MAKLVSIIVSVYNKEQFLEKCIESLIDLKMDKNNIEAIFVDDCSTDESVNIIKHYEKDYDFIKLIQLPENTGSPSEPRNIGMREAQGKYITLLDADDWLDKEGFPQVIEKVNKDDADLGFGQSFKHKSKNVKYHARFTSYKEASHLKPQDISKIFRAVGPPGKVFKRSLVMDHHIEFEHMKYGEDKLFFFQLFGKVDDITMSTIPMYHVNRYDENKSLVQQTSMLDKANSNLEVLDRTCHMDMSSELKHMALARMVEVDFISRFLRTKTFIKSADKEKFYAVIEKVERKIKEQGIDINTLITNPVFKQIYTLYHHADESVFVNFTKDVVNDQWRYIIQDGIVFRDFVHQYDMIKPTVVDCYPVYEGTQMMGENKYEVIRVMKPDDINIQSVSLVEINNAANEYEVTYKYSDDRIYVPHEEFEKLNKDININFNVNYGESGRSLVYASYPSFNDVFKMKRQNFKVEFVHKKNENKAQQVTNRKSEYFKRITNPMMTLKKIKIYKDVSFKEEVGSLEAGTRVEASDIQYTSKGTPRLVLDDGSIITANKDFITLINTSGLNKYITEVPKKVKVVKACKLYDSRDFKDNTVRKLKKGDVLTIRDIIYTNNSTPRLVTQEGLFLTANKDFIKIIK | failed
10 | MAKNYYDITLALAGICQSARLVQQLAHQGHCDADALHVSLNSIIDMNPSSTLAVFGGSEANLRVGLETLLGVLNASSRQGLNAELTRYTLSLMVLERKLSSAKGALDTLGNRINGLQRQLEHFDLQSETLMSAMAAIYVDVISPLGPRIQVTGSPAVLQSPQVQAKVRATLLAGIRAAVLWHQVGGGRLQLMFSRNRLTTQAKQILAHLTPEL | not failed
11 | MAKQIIVTDSTSDLSHEYLKQHNIHVIPLSLTIDGKSYTDQVDISSSEYIDHIENDADVKTSQPPIGRFIETYEQLAQDDVEIISIHLSSGLSGTYNTAVQASHMVDGNITVIDSKSISFGLGYQIKQIVELISQGTSTEEIVKEMTQLRDNLQLFVVIGQLNQLIKGGRISKTKGLIGNIMKIKPIGTLRDGKLELVHNSRTQNSSVQYLKKEITDFVKDHKIKSIGIAHANVKDFVDKIIKSFTESFDFSQFDINVTTPVISTHTGQGAIGLVVLRDTLN | failed
12 | MAKRKKKEVFDWEDEDQEEIIWVSKSEIKRDAEDLKQLGEKIVNLTKANLAKIPLDESLLDAIELAQRLQKEARRRQLQYIGKLFRGIDVEPIREALDKIENKHNQQQAMLHKIEKVRDELVEKGDVALTDLLNDYPNGDRQQLRNLIRSAQKELEQNKPSKAYREIYQMLKVLMLED | failed
13 | MAKRVFIGATGQNCGKTTMSVSLMHLARQKYDRVGFIKPIGPKIEGYNGLTVDMDAILMARTFGLEEDLPLMNPVSLHKNFTRDFLSGKLDCNVLKTKILEAFEILDKKYDFLIIEGAGHGGVGSVIGLSNACVAHTLNAPVIIVTDSGIGSSIDAVHLNLALYEKEDADVRMLLVNKLRADKRESILSFLGKGFPGRPLKISGGFNYSPILANPTLSHIGKLLNLPVHGDPDGQSRIIHHIHLGAASAQRVVDALQESTLIVITSSRDELIVTLSSLYHIPAFREKIVGLVIAGHIPASEISQQILDDSNIPYIRVHDSTANVFTTLMEDVAKITAEDQEKLNWIRANAENEIDFEAIDALLLEHHHHHH | failed
14 | MAKSGSLSIRVVEGRALPAKDVSGSSDPYCLVKVDDEVVARTATIWRSLSPFWGEEYTVHLPLDFHHLAFYVLDEDTVGHDDIIGKISLSKEAITADPRGIDSWINLSRVDPDEEVQGEVCLAVKLLEDARGRCLRCHVRQARDLAPRDISGTSDPFARVFWGSRSLETSTIKKTRFPHWDEVLELREAPGTTSPLRVELWDWDMVGKNDFLGMVEFTPQTLQQKPPNGWFRLLPFPRAEDSGGSLGALRLKVRLTEDRVLPSQYYQPLMELLLESVQGPAEEDTTSPLALLEELASGDCRQDLATKLVKLFLGRGLAGPFLDYLTRREVARTNDPNTLFRSNSLASKSMEQFMKLVGMRYLHEVLRPVISRVFEEKKYMELDPSKMDLNRSRRISFKGTPTEEQVRETSLGLLTGYLGSVVDAIVSSAGRCPLALRLAFKQLQQCVEKRFPGMEHQVGWVLRGLMRIRLKAPCVQCSRCIDXRNRIWGHRRCLPHGELGLLSPLLQAVQSIGNLGQQLGQGKEQWLAPLHPFLLQSISRVRDFLDQLVDVDGDEEAGFPLTKLMECRGVTKEGRVGXGRWSTSXFPAFRRERQERPGGLCCSERSAAWSWRLRLTGRDIAGLTGQWHAVPGRPQVHSSIPLSCIRAVERVDEGAFQLPHVMQVVTQDGTGASHTTYLQCKNVNDLNQWLSALRKASAPNPGKLAACHPGAFRSGRWTCCLQAERSAALSFHLGVLCNLEHVTXFLCASVFSSGKWSSPLDPKAGGAALYLRNQFCLSLSTLRLKLLEDSSLDTAPDVDPGKDSSAVDGPCAEVLAQQREATTRLLQVLEDLEQAHEEFQKRG | failed
15 | MAKSVNALINEAIEAGKKRDYKTSILILENLAAEGLAEVSSPFYGEKKGNPEIYLYLSRAWAAVNNYGRSIAYGKAYIKRCSSDPSANSTDLPMGFFFLGRSYLAAGQYDRAVYCLEKSLKLNPHPLETRAMLGSAYLKWKKPRLARETFEEALKFAPSDAKLNAGYLNSLFVEGIYELRNGNADMARQMFSFAIKNGIDGVAPRLYLAHALKMEGYLPEALGQYEAACEFEPDDPALKWYPAMIKMQLGDTTAAAEDFAKLGIEIPDDGVSDRFFAMGVIKKHMERGDYSRAAVAARIFIKTFGSDAEIRLLAAEAQRSMGNTNTALGHYKCALEHEPENPYPHYGIMLALQEAYRWEELSAEILRAEASGVCDADDIYYYKIITAAHIDNPPEEVLPHLQALIQNGRSDSAIFNAMGCCYIKLNMPDLALNWYERALSINEKDEEAKIGIIASYENLQLNKEADEAYNSYLNEWGKNIYIRRDYVLFLEKCERWEDAGNQLEILMSQGKKVNFDPELALFRRKAGQYQKAAILYRKMLRAKPEERLLLHNLVFCLDKMGQTKVSLDLLKAAEKMFGIKTDSMLIKGILQMRLKKKEDAIKTFQYILEKEPKNKHAAEFLEKAYGK | failed
16 | MAKTLNSICFTTLLLVLLFISAEIPTAEANCDTYLGEVTVYYPCRERDCEAQCYEHYPHSCKGECEHHDHVVHHDNEEEHCHCYGR | failed
17 | MAKVCYFTGRKTVSGNNRSHAMNKTKRVVKPNLQKVTVLIDGKPKKVWASARALKSGKVERVLEHHHHHH | failed
18 | MAKYFDIDDILIEEEFVPVLFHKTANGVTIDPSAETNCVSLLIPSAKAEQGSKVELPFWLAHELHLRQAVTINLPPCFDQKTRLEVQADAAYVDLRSRCPYFYEFGCKIEPLVTDRTLGILLSTAFKIRYKEALTKVYTAAHITASKYLSFLTKEETNLYEAAHLSMTAFKKWRTGGPRFQRASILGRKRKDSN | failed
